Target: α5β1 integrin receptor on primary mesangial cells
Test: cell-based or functional assay

inhibition of attachment of MC to fibronectin compared to untreated MC: 1.7 fold
Substance: D-vault (CGRGDSP peptide-INT packaged in purified vault)

Source: US20140194361A1, “Vault Agents for Treating Chronic Kidney Disease” (priority 2010, published 2014)
